Laboratory results taken from PMC3131385, “TBP Binding-Induced Folding of the Glucocorticoid Receptor AF1 Domain Facilitates Its Interaction with Steroid Receptor Coactivator-1” (PLoS ONE, 2011).
Each block holds one binder with its values, some of them ahead of it.

B1: TBPC, 181 C-terminal residues of human TATA box binding protein (TBP) (domain or fragment, UniProt P20226 159-339, looked up)
chain: SGIVPQLQNIVSTVNLGCKLDLKTIALRARNAEYNPKRFAAVIMRIREPRTTALIFSSGKMVCTGAKSEEQSRLAARKYARVVQKLGFPAKFLDFKIQNMVGSCDVKFPIRLEGLVLTHQQFSSYEPELFPGLIYRMIKPRIVLLIFVSGKVVLTGAKVRAEIYEAFENIYPILKGFRKTT
notes: source: E. coli BL21(DE3), purified (NTA column, imidazole step-gradient)
B2: glucocorticoid receptor (GR) N-terminal activation function domain AF1 (domain or fragment, human, UniProt P04150 77-262, looked up)
chain: DLSKAVSLSMGLYMGETETKVMGNDLGFPQQGQISLSSGETDLKLLEESIANLNRSTSVPENPKSSASTAVSAAPTEKEFPKTHSDVSSEQQHLKGQTGTNGGNVKLYTTDQSTFDILQDLEFSSGSPGKETNESPWRSDLLIDENCLLSPLAGEDDSFLLEGNSNEDCKPLILPDTKPKIKDNGD
notes: human glucocorticoid receptor, AF1 domain, amino acid residues 77-262; made from human GR cDNA digested with BglII; also called GR AF1

Columns and labels:
[1] = target: B2; assay: SPR; TBPc immobilised on C1 chip (Fc2, 200-250 RU, through ionic interaction), AF1 as analyte 0.2-6.4 µM, multi-cycle kinetics, room temperature, 0.01 M HEPES pH 7.4, 0.15 M NaCl, 50 µM EDTA, 0.05% Tween-20; 1:1 Langmuir model, KD = kd/ka; settings: both partners purified
[2] = target: B2; assay: circular dichroism titration; far-UV CD at 22°C, AF1 fixed at 4.5 µM, TBPC varied (AF1:TBPC 1:0.25 to 1:2); ellipticity at 220 nm, experimental against theoretical sum; settings: both partners purified
[3] = target: B1; assay: SPR; TBPc immobilised on C1 chip (Fc2, 200-250 RU, through ionic interaction), AF1 as analyte 0.2-6.4 µM, multi-cycle kinetics, room temperature, 0.01 M HEPES pH 7.4, 0.15 M NaCl, 50 µM EDTA, 0.05% Tween-20; 1:1 Langmuir model, KD = kd/ka; settings: both partners purified
[4] = target: T1, TBPC, 181 C-terminal residues of human TATA box binding protein (TBP) (human, UniProt P20226 159-339); assay: SPR
T1 chain: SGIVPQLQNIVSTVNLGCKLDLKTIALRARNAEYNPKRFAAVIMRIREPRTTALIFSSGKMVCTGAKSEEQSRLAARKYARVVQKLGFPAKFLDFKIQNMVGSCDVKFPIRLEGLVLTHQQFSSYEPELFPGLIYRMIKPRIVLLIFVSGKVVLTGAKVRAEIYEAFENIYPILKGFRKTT

[5] = target: T2, steroid receptor coactivator-1 (SRC-1) (human (endogenous in HeLa), UniProt Q15788 1-1441); assay: co-IP; SRC-1 antibody on protein A/G-agarose beads; HeLa nuclear extract (0.5 mg total protein) mixed with 10 µg purified AF1 and/or TBPC, 4°C; blot with GR AF1 antibody; settings: one partner purified
T2 construct: source: endogenous, HeLa nuclear extract
T2 sequence (Q15788 whole entry): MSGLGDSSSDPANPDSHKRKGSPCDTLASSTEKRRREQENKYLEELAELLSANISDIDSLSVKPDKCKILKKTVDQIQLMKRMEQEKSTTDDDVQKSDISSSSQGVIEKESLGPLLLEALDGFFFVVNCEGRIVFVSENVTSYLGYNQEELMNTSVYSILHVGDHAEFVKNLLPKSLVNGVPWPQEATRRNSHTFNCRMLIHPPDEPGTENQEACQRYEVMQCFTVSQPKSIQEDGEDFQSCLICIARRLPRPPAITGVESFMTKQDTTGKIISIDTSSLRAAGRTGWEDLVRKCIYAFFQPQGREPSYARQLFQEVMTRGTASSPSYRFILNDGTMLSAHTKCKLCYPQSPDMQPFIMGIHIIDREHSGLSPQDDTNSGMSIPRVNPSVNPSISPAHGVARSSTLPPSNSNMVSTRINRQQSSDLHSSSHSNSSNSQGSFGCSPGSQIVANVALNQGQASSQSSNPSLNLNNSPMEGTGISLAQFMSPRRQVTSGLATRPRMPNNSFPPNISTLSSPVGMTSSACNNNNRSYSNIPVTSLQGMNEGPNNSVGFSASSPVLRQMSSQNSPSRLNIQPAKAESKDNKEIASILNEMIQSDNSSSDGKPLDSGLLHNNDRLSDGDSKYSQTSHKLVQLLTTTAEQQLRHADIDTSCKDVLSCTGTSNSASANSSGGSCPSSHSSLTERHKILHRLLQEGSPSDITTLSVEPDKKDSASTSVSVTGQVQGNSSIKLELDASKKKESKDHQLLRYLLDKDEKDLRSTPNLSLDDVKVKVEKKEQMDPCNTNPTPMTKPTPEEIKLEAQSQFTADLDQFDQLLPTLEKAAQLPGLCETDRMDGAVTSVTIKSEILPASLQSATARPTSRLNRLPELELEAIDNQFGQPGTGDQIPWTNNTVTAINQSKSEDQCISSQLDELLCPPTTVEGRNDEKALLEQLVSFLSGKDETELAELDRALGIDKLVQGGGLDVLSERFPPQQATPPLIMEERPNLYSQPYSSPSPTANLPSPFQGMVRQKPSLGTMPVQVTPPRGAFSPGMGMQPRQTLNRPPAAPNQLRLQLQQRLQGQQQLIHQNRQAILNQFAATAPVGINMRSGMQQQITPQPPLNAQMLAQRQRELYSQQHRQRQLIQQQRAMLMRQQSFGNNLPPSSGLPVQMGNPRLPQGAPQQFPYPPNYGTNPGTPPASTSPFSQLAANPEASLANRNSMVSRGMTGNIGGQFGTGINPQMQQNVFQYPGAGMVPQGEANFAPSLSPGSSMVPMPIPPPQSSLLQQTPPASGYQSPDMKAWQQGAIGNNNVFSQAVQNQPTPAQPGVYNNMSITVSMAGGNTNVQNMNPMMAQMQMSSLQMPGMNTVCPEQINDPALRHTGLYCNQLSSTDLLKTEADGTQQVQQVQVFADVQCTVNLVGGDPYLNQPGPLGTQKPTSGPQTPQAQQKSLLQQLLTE

Binder: B1
Kd [1]: 460 nM | stoichiometry N [2]: ~1

Binder: B2
stoichiometry N [3]: 1 | koff [4]: 0.00143 s⁻¹

fold increase against AF1 alone [5]: ~8 fold
B3: GR AF1:TBPC complex (complex, human)
chain 1: DLSKAVSLSMGLYMGETETKVMGNDLGFPQQGQISLSSGETDLKLLEESIANLNRSTSVPENPKSSASTAVSAAPTEKEFPKTHSDVSSEQQHLKGQTGTNGGNVKLYTTDQSTFDILQDLEFSSGSPGKETNESPWRSDLLIDENCLLSPLAGEDDSFLLEGNSNEDCKPLILPDTKPKIKDNGD
chain 2: SGIVPQLQNIVSTVNLGCKLDLKTIALRARNAEYNPKRFAAVIMRIREPRTTALIFSSGKMVCTGAKSEEQSRLAARKYARVVQKLGFPAKFLDFKIQNMVGSCDVKFPIRLEGLVLTHQQFSSYEPELFPGLIYRMIKPRIVLLIFVSGKVVLTGAKVRAEIYEAFENIYPILKGFRKTT
notes: human glucocorticoid receptor, AF1 domain, amino acid residues 77-262; as m1; as m2; AF1, TBPC and the nuclear extract were mixed at once; only AF1 was detected on the blot; also called AF1 complexed with TBPC; source: purified AF1 and purified TBPC (10 µg) mixed together with HeLa nuclear extract
